Source: IntAct's records for PubMed 30518913

B1: UbiA prenyltransferase domain-containing protein 1 (Homo sapiens), Q9Y5Z9 (parent)
chain: MAASQVLGEKINILSGETVKAGDRDPLGNDCPEQDRLPQRSWRQKCASYVLALRPWSFSASLTPVALGSALAYRSHGVLDPRLLVGCAVAVLAVHGAGNLVNTYYDFSKGIDHKKSDDRTLVDRILEPQDVVRFGVFLYTLGCVCAACLYYLSPLKLEHLALIYFGGLSGSFLYTGGIGFKYVALGDLIILITFGPLAVMFAYAIQVGSLAIFPLVYAIPLALSTEAILHSNNTRDMESDREAGIVTLAILIGPTFSYILYNTLLFLPYLVFSILATHCTISLALPLLTIPMAFSLERQFRSQAFNKLPQRTAKLNLLLGLFYVFGIILAPAGSLPKI

Variants of: B1
Settings: with rash_human HRAS

effect of a mutation on the interaction	Variant
disrupting interaction	R54A;P55A;W56A;S57A
disrupting interaction	N102S
